Publication PMC11574045, “A cofactor-induced repressive type of transcription factor condensation can be induced by synthetic peptides to suppress tumorigenesis” (The EMBO Journal, 2024)

B1: NR0B1/DAX1 (protein, UniProt P51843 1-470, looked up)
Nuclear receptor subfamily 0 …: MAGENHQWQGSILYNMLMSAKQTRAAPEAPETRLVDQCWGCSCGDEPGVGREGLLGGRNVALLYRCCFCGKDHPRQGSILYSMLTSAKQTYAAPKAPEATLGPCWGCSCGSDPGVGRAGLPGGRPVALLYRCCFCGEDHPRQGSILYSLLTSSKQTHVAPAAPEARPGGAWWDRSYFAQRPGGKEALPGGRATALLYRCCFCGEDHPQQGSTLYCVPTSTNQAQAAPEERPRAPWWDTSSGALRPVALKSPQVVCEAASAGLLKTLRFVKYLPCFQVLPLDQQLVLVRNCWASLLMLELAQDRLQFETVEVSEPSMLQKILTTRRRETGGNEPLPVPTLQHHLAPPAEARKVPSASQVQAIKCFLSKCWSLNISTKEYAYLKGTVLFNPDVPGLQCVKYIQGLQWGTQQILSEHTRMTHQGPHDRFIELNSTLFLLRFINANVIAELFFRPIIGTVSMDDMMLEMLCTKI
B2: NR0B2/SHP (protein, UniProt Q15466 1-257, looked up)
Nuclear receptor subfamily 0 …: MSTSQPGACPCQGAASRPAILYALLSSSLKAVPRPRSRCLCRQHRPVQLCAPHRTCREALDVLAKTVAFLRNLPSFWQLPPQDQRRLLQGCWGPLFLLGLAQDAVTFEVAEAPVPSILKKILLEEPSSSGGSGQLPDRPQPSLAAVQWLQCCLESFWSLELSPKEYACLKGTILFNPDVPGLQAASHIGHLQQEAHWVLCEVLEPWCPAAQGRLTRVLLTASTLKSIPTSLLGDLFFRPIIGDVDIAGLLGDMLLLR
B3: NR1I3/CAR1 (protein, UniProt Q14994 1-352, looked up)
Nuclear receptor subfamily 1 …: MASREDELRNCVVCGDQATGYHFNALTCEGCKGFFRRTVSKSIGPTCPFAGSCEVSKTQRRHCPACRLQKCLDAGMRKDMILSAEALALRRAKQAQRRAQQTPVQLSKEQEELIRTLLGAHTRHMGTMFEQFVQFRPPAHLFIHHQPLPTLAPVLPLVTHFADINTFMVLQVIKFTKDLPVFRSLPIEDQISLLKGAAVEICHIVLNTTFCLQTQNFLCGPLRYTIEDGARVSPTVGFQVEFLELLFHFHGTLRKLQLQEPEYVLLAAMALFSPDRPGVTQRDEIDQLQEEMALTLQSYIKGQQRRPRDRFLYAKLLGLLAELRSINEAYGYQIQHIQGLSAMMPLLQEICS
B4: NR5A1/FTZ-F1A (protein, UniProt P33242 1-462, looked up)
Steroidogenic factor 1: MDYSYDEDLDELCPVCGDKVSGYHYGLLTCESCKGFFKRTVQNNKHYTCTESQSCKIDKTQRKRCPFCRFQKCLTVGMRLEAVRADRMRGGRNKFGPMYKRDRALKQQKKAQIRANGFKLETGPPMGVPPPPPPPPDYMLPPSLHAPEPKALVSGPPSGPLGDFGAPSLPMAVPGPHGPLAGYLYPAFSNRTIKSEYPEPYASPPQQPGPPYSYPEPFSGGPNVPELILQLLQLEPEEDQVRARIVGCLQEPAKSRSDQPAPFSLLCRMADQTFISIVDWARRCMVFKELEVADQMTLLQNCWSELLVLDHIYRQVQYGKEDSILLVTGQEVELSTVAVQAGSLLHSLVLRAQELVLQLHALQLDRQEFVCLKFLILFSLDVKFLNNHSLVKDAQEKANAALLDYTLCHYPHCGDKFQQLLLCLVEVRALSMQAKEYLYHKHLGNEMPRNNLLIEMLQAKQT
B5: NR3C2 (protein, UniProt P08235 1-984, looked up)
Mineralocorticoid receptor: METKGYHSLPEGLDMERRWGQVSQAVERSSLGPTERTDENNYMEIVNVSCVSGAIPNNSTQGSSKEKQELLPCLQQDNNRPGILTSDIKTELESKELSATVAESMGLYMDSVRDADYSYEQQNQQGSMSPAKIYQNVEQLVKFYKGNGHRPSTLSCVNTPLRSFMSDSGSSVNGGVMRAVVKSPIMCHEKSPSVCSPLNMTSSVCSPAGINSVSSTTASFGSFPVHSPITQGTPLTCSPNVENRGSRSHSPAHASNVGSPLSSPLSSMKSSISSPPSHCSVKSPVSSPNNVTLRSSVSSPANINNSRCSVSSPSNTNNRSTLSSPAASTVGSICSPVNNAFSYTASGTSAGSSTLRDVVPSPDTQEKGAQEVPFPKTEEVESAISNGVTGQLNIVQYIKPEPDGAFSSSCLGGNSKINSDSSFSVPIKQESTKHSCSGTSFKGNPTVNPFPFMDGSYFSFMDDKDYYSLSGILGPPVPGFDGNCEGSGFPVGIKQEPDDGSYYPEASIPSSAIVGVNSGGQSFHYRIGAQGTISLSRSARDQSFQHLSSFPPVNTLVESWKSHGDLSSRRSDGYPVLEYIPENVSSSTLRSVSTGSSRPSKICLVCGDEASGCHYGVVTCGSCKVFFKRAVEGQHNYLCAGRNDCIIDKIRRKNCPACRLQKCLQAGMNLGARKSKKLGKLKGIHEEQPQQQQPPPPPPPPQSPEEGTTYIAPAKEPSVNTALVPQLSTISRALTPSPVMVLENIEPEIVYAGYDSSKPDTAENLLSTLNRLAGKQMIQVVKWAKVLPGFKNLPLEDQITLIQYSWMCLSSFALSWRSYKHTNSQFLYFAPDLVFNEEKMHQSAMYELCQGMHQISLQFVRLQLTFEEYTIMKVLLLLSTIPKDGLKSQAAFEEMRTNYIKELRKMVTKCPNNSGQSWQRFYQLTKLLDSMHDLVSDLLEFCFYTFRESHALKVEFPAMLVEIISDQLPKVESGNAKPLYFHRK
B6: NKX6-3 (protein, UniProt A6NJ46 1-265, looked up)
Homeobox protein Nkx-6.3: MESNLQGTFLLNNTPLAQFPEMKAPVCQYSVQNSFYKLSPPGLGPQLAAGTPHGITDILSRPVAAPNNSLLSGYPHVAGFGGLSSQGVYYSPQVGNFSKAGNEYPTRTRNCWADTGQDWRGGRQCSNTPDPLSDSIHKKKHTRPTFTGHQIFALEKTFEQTKYLAGPERARLAYSLGMTESQVKVWFQNRRTKWRKKSALEPSSSTPRAPGGAGAGAGGDRAPSENEDDEYNKPLDPDSDDEKIRLLLRKHRAAFSVLSLGAHSV
B7: NR2F6 (protein, UniProt P10588 1-404, looked up)
Nuclear receptor subfamily 2 …: MAMVTGGWGGPGGDTNGVDKAGGYPRAAEDDSASPPGAASDAEPGDEERPGLQVDCVVCGDKSSGKHYGVFTCEGCKSFFKRSIRRNLSYTCRSNRDCQIDQHHRNQCQYCRLKKCFRVGMRKEAVQRGRIPHSLPGAVAASSGSPPGSALAAVASGGDLFPGQPVSELIAQLLRAEPYPAAAGRFGAGGGAAGAVLGIDNVCELAARLLFSTVEWARHAPFFPELPVADQVALLRLSWSELFVLNAAQAALPLHTAPLLAAAGLHAAPMAAERAVAFMDQVRAFQEQVDKLGRLQVDSAEYGCLKAIALFTPDACGLSDPAHVESLQEKAQVALTEYVRAQYPSQPQRFGRLLLRLPALRAVPASLISQLFFMRLVGKTPIETLIRDMLLSGSTFNWPYGSGQ
B8: NR2C1/TR2A (protein, UniProt Q505F1 1-590, looked up)
Nuclear receptor subfamily 2 …: MATIEEIAHQIIDQQMGEIVTEQQTGQKIQIVTALDHSTQGKQFILANHEGSTPGKVFLTTPDAAGVNQLFFTSPDLSAPHLQLLTEKSPDQGPNKVFDLCVVCGDKASGRHYGAITCEGCKGFFKRSIRKNLVYSCRGSKDCVINKHHRNRCQYCRLQRCIAFGMKQDSVQCERKPIEVSREKSSNCAASTEKIYIRKDLRSPLAATPTFVTDSETARSAGLLDSGMFVNIHPSGIKTEPAMLMAPDKAESCQGDLSTLASVVTSLANLGKAKDLSHCGGDMPVVQSLRNGDTSFGAFHHDIQTNGDVSRAFDTLAKALTPGESSACQSPEEGMEGSPHLIAGEPSFVEKEGPLLSESHVAFRLTMPSPMPEYLNVHYIGESASRLLFLSMHWALSIPSFQALGQENSISLVKAYWNELFTLGLAQCWQVMNVATILATFVNCLHSSLQQDKMSPERRKSLMEHIFKLQEFCNSMVKLCIDGHEYAYLKAIVLFSPDHPGLENMELIERFQEKAYVEFQDYITRTYPDDTYRLSRLLLRLPALRLMNATITEELFFKGLIGNVRIDSVIPHILKMEPADYNSQIIGHSL
B9: NPM2 (protein, UniProt Q86SE8 1-214, looked up)
Nucleoplasmin-2: MNLSSASSTEEKAVTTVLWGCELSQERRTWTFRPQLEGKQSCRLLLHTICLGEKAKEEMHRVEILPPANQEDKKMQPVTIASLQASVLPMVSMVGVQLSPPVTFQLRAGSGPVFLSGQERYEASDLTWEEEEEEEGEEEEEEEEDDEDEDADISLEEQSPVKQVKRLVPQKQASVAKKKKLEKEEEEIRASVRDKSPVKKAKATARAKKPGFKK
B10: NR1F3/RORC (protein, UniProt P51449 1-518, looked up)
Nuclear receptor ROR-gamma: MDRAPQRQHRASRELLAAKKTHTSQIEVIPCKICGDKSSGIHYGVITCEGCKGFFRRSQRCNAAYSCTRQQNCPIDRTSRNRCQHCRLQKCLALGMSRDAVKFGRMSKKQRDSLHAEVQKQLQQRQQQQQEPVVKTPPAGAQGADTLTYTLGLPDGQLPLGSSPDLPEASACPPGLLKASGSGPSYSNNLAKAGLNGASCHLEYSPERGKAEGRESFYSTGSQLTPDRCGLRFEEHRHPGLGELGQGPDSYGSPSFRSTPEAPYASLTEIEHLVQSVCKSYRETCQLRLEDLLRQRSNIFSREEVTGYQRKSMWEMWERCAHHLTEAIQYVVEFAKRLSGFMELCQNDQIVLLKAGAMEVVLVRMCRAYNADNRTVFFEGKYGGMELFRALGCSELISSIFDFSHSLSALHFSEDEIALYTALVLINAHRPGLQEKRKVEQLQYNLELAFHHHLCKTHRQSILAKLPPKGKLRSLCSQHVERLQIFQHLHPIVVQAAFPPLYKELFSTETESPVGLSK
B11: NR2B3/RXRG (protein, UniProt P28705 1-463, looked up)
Retinoic acid receptor …: MYGNYSHFMKFPTGFGGSPGHTGSTSMSPSVALPTGKPMDSHPSYTDTPVSAPRTLSAVGTPLNALGSPYRVITSAMGPPSGALAAPPGINLVAPPSSQLNVVNSVSSSEDIKPLPGLPGIGNMNYPSTSPGSLVKHICAICGDRSSGKHYGVYSCEGCKGFFKRTIRKDLIYTCRDNKDCLIDKRQRNRCQYCRYQKCLVMGMKREAVQEERQRSRERAESEAECASSSHEDMPVERILEAELAVEPKTESYGDMNVENSTNDPVTNICHAADKQLFTLVEWAKRIPHFSDLTLEDQVILLRAGWNELLIASFSHRSVSVQDGILLATGLHVHRSSAHSAGVGSIFDRVLTELVSKMKDMQMDKSELGCLRAIVLFNPDAKGLSNPSEVETLREKVYATLEAYTKQKYPEQPGRFAKLLLRLPALRSIGLKCLEHLFFFKLIGDTPIDSFLMEMLETPLQIT
B12: NR1H2/LXRB (protein, UniProt P55055 1-460, looked up)
Oxysterols receptor LXR-beta: MSSPTTSSLDTPLPGNGPPQPGAPSSSPTVKEEGPEPWPGGPDPDVPGTDEASSACSTDWVIPDPEEEPERKRKKGPAPKMLGHELCRVCGDKASGFHYNVLSCEGCKGFFRRSVVRGGARRYACRGGGTCQMDAFMRRKCQQCRLRKCKEAGMREQCVLSEEQIRKKKIRKQQQESQSQSQSPVGPQGSSSSASGPGASPGGSEAGSQGSGEGEGVQLTAAQELMIQQLVAAQLQCNKRSFSDQPKVTPWPLGADPQSRDARQQRFAHFTELAIISVQEIVDFAKQVPGFLQLGREDQIALLKASTIEIMLLETARRYNHETECITFLKDFTYSKDDFHRAGLQVEFINPIFEFSRAMRRLGLDDAEYALLIAINIFSADRPNVQEPGRVEALQQPYVEALLSYTRIKRPQDQLRFPRMLMKLVSLRTLSSVHSEQVFALRLQDKKLPPLLSEIWDVHE

system: HEK293FT cells transfected with TF library; experiment: Screening of TF condensates based on fluorescent puncta; format: cell-based; conditions: Figure 1B numerical data; TF library screen, one value per transcriptional factor
In short: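 Puncta scoring used automated confocal imaging of fifty random fields per well, after anti-Flag or anti-GAL4 immunofluorescence (Alexa 488) in PFA-fixed cells. HEK293FT cells carried TF library plasmids delivered with PEI (1.6 μg/ml DNA). At 60 h they were switched for 12 h to glucose-containing or glucose-free medium.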

Molecule | Z score of condensed fraction
B1 | -0.574
B2 | -0.8477
B3 | -0.6844
B4 | -0.1726
B5 | -0.7191
B6 | -0.571
B7 | 2.586
B8 | -0.6816
B9 | 1.0628
B10 | 0.1658
B11 | -0.7251
B12 | 0.2806
